Results as given in the supplement of paper PMC10724198.
± gives the standard deviation of the averaged measurements.
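Further: PSI is a weighted mean of sequencing reads over stability bins, variants kept only with over 10 reads, mCherry proximal and sfGFP distal, peptide attached via GGGS linker.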

Each sequence was assayed on Saccharomyces cerevisiae (assay: protein stability index of tFT-peptide fusion (C-terminal peptide) (PSI (0-1 scale)); higher = more stable (slower turnover)). Conditions: genetic background: wild type; temperature: 30 C.
TGLSFIRCLDFK gave a protein stability index of 0.688 ± 0.055.
Sequence TGMRRLPGEVCV has a protein stability index of 0.581 ± 0.017.
For TGQVLKYVVGSQ, the protein stability index was 0.711 ± 0.055.
With TGRLDFSIQYYR the protein stability index was 0.6986 ± 0.0069.
TGSIMYDLEVDK showed a protein stability index of 0.6795 ± 0.0039.
In the case of TGYEVAGWVNWC, the protein stability index is reported as 0.711 ± 0.018.
With THGFKQLTTPLD the protein stability index was 0.676 ± 0.014.
TIHKRTLEGSYN showed a protein stability index of 0.65 ± 0.048.
Work on TILKKKNRRNKE yielded a protein stability index of 0.697 ± 0.024.
Sequence TILLNWSQVHME has a protein stability index of 0.7 ± 0.016.
Sequence TKKKQKIKKNNS has a protein stability index of 0.748 ± 0.042.
TKKKTINRTQKQ was tested, and the protein stability index was 0.713 ± 0.043.
TKKKTKKKEQKE showed a protein stability index of 0.6627 ± 0.0027.
TKKKTTNKIIKI showed a protein stability index of 0.671 ± 0.054.
In the case of TKKNDKIRIQKS, the protein stability index is reported as 0.741 ± 0.043.
With TKSWSLNGTYLL the protein stability index was 0.703 ± 0.034.
TKTKKKKNKKQE gave a protein stability index of 0.719 ± 0.067.
For TKTNKALKTSKI, the protein stability index was 0.699 ± 0.061.
For TLARLISGKRLL, the protein stability index was 0.648 ± 0.022.
Work on TLEGRQKEMGIA yielded a protein stability index of 0.691 ± 0.037.
In the case of TLEHRHPAIHPE, the protein stability index is reported as 0.723 ± 0.046.
With TLGKPVGLARLS the protein stability index was 0.692 ± 0.035.
Work on TLKMKHKPKKNL yielded a protein stability index of 0.6583 ± 0.0035.
TLLLLLPPLPSF was tested, and the protein stability index was 0.598 ± 0.023.
Work on TLSPPPLSPSAP yielded a protein stability index of 0.711 ± 0.013.
For TLVLQFGRKRFG, the protein stability index was 0.629 ± 0.013.
TLWLVSTAVLDC was tested, and the protein stability index was 0.534 ± 0.036.
TNCNSHKLMAAL showed a protein stability index of 0.679 ± 0.011.
TNGYWVIACKKF gave a protein stability index of 0.672 ± 0.069.
TNTPSYSSRAEF gave a protein stability index of 0.733 ± 0.11.
With TPGGPLLHSGFL the protein stability index was 0.755 ± 0.085.
Work on TPGLVRVGSVSF yielded a protein stability index of 0.708 ± 0.017.
With TPLSSPHPSPPP the protein stability index was 0.595 ± 0.045.
Sequence TPMEKRQDANIN has a protein stability index of 0.691 ± 0.015.
TPMPSCNHRPED gave a protein stability index of 0.655 ± 0.03.
In the case of TPPHNRERPTVQ, the protein stability index is reported as 0.657 ± 0.03.
TPPIPTTTSNFS gave a protein stability index of 0.734 ± 0.052.
TPPPASALPPSP gave a protein stability index of 0.705 ± 0.014.
TPPPRSFHRFPC gave a protein stability index of 0.694 ± 0.043.
TPPSPHPCPSPL was tested, and the protein stability index was 0.797 ± 0.064.
In the case of TPPVPVPPPQLL, the protein stability index is reported as 0.748 ± 0.044.
Sequence TPTPGCYIASLT has a protein stability index of 0.759 ± 0.21.
Work on TQHKANQGLELI yielded a protein stability index of 0.663 ± 0.008.
Sequence TQKESEKLNMSK has a protein stability index of 0.667 ± 0.064.
For TQNRCGGPSIAL, the protein stability index was 0.634 ± 0.03.
For TQRIEKEPTKKY, the protein stability index was 0.703 ± 0.04.
TRCKLALEKLVG was tested, and the protein stability index was 0.5986 ± 0.0015.
TRGMDYWLFTGD was tested, and the protein stability index was 0.706 ± 0.0031.
Sequence TRGPKYTMVVKR has a protein stability index of 0.672 ± 0.017.
TRKESNTIHNEQ showed a protein stability index of 0.688 ± 0.014.
TRRGAAAEDQEK was tested, and the protein stability index was 0.697 ± 0.065.
Sequence TRRVPNSRTGTI has a protein stability index of 0.74 ± 0.072.
In the case of TRSLPSSSSHSL, the protein stability index is reported as 0.727 ± 0.011.
With TRTCGRRRAGGR the protein stability index was 0.633 ± 0.1.
Sequence TRTRARAIQTAT has a protein stability index of 0.6462 ± 0.0054.
TRWRPPCAPSGS was tested, and the protein stability index was 0.742 ± 0.076.
TSAPDSPVPSLP gave a protein stability index of 0.695 ± 0.015.
With TSGAQSTRLGRE the protein stability index was 0.778 ± 0.11.
In the case of TSIAKRNGLLPG, the protein stability index is reported as 0.719 ± 0.13.
For TSIDIEWYNSLM, the protein stability index was 0.589 ± 0.026.
TSIREVPAPCSH showed a protein stability index of 0.756 ± 0.032.
For TSKYQENKQKKR, the protein stability index was 0.7095 ± 0.0057.
In the case of TSLIPPASPFAW, the protein stability index is reported as 0.643 ± 0.11.
TSPPSLLFAMAR gave a protein stability index of 0.693 ± 0.038.
Sequence TSPTPPPTPCRS has a protein stability index of 0.6927 ± 0.0067.
Sequence TSRPLHEQTVSP has a protein stability index of 0.677 ± 0.025.
In the case of TSRTLKPGIPPA, the protein stability index is reported as 0.7033 ± 0.0013.
Work on TSSPVFPFPPTP yielded a protein stability index of 0.745 ± 0.042.
TSSSDCRSPAPP was tested, and the protein stability index was 0.744 ± 0.038.
For TSTDLKKTNLQN, the protein stability index was 0.645 ± 0.021.
For TSTRTPTHRGPL, the protein stability index was 0.762 ± 0.014.
For TSYFRRRRSHSH, the protein stability index was 0.753 ± 0.01.
TTCKTPPTYSFP gave a protein stability index of 0.71 ± 0.033.
For TTCLYYDLQIPM, the protein stability index was 0.672 ± 0.015.
For TTIVGRIMRVMR, the protein stability index was 0.706 ± 0.012.
TTKKKKGKKKYH gave a protein stability index of 0.681 ± 0.048.
In the case of TTQEPTPLAQEQ, the protein stability index is reported as 0.713 ± 0.024.
For TTVAIPSINRYS, the protein stability index was 0.671 ± 0.051.
For TTWSPWLGVAET, the protein stability index was 0.752 ± 0.07.
TVCGTLISFVEG was tested, and the protein stability index was 0.694 ± 0.028.
TVERLGSRRGMA was tested, and the protein stability index was 0.712 ± 0.022.
Sequence TVIWNSLRNCKF has a protein stability index of 0.819 ± 0.15.
TVPFGLPVRPSP gave a protein stability index of 0.7464 ± 0.004.
TVPRSPPSPPLT showed a protein stability index of 0.7 ± 0.021.
Work on TVSGPKTNLGQA yielded a protein stability index of 0.71 ± 0.14.
With TVYRQRRDAPTR the protein stability index was 0.727 ± 0.022.
In the case of TWANKRIGRRKE, the protein stability index is reported as 0.778 ± 0.039.
For TWKARFFMDLGN, the protein stability index was 0.672 ± 0.12.
TWVPYIIMKRER was tested, and the protein stability index was 0.669 ± 0.019.
With TYANKVKVHCGI the protein stability index was 0.651 ± 0.059.
For VAAFGGGPTNGV, the protein stability index was 0.724 ± 0.013.
VAAGGTVSPSSQ showed a protein stability index of 0.653 ± 0.057.
In the case of VAAKAHPLASMS, the protein stability index is reported as 0.617 ± 0.11.
Work on VACFASRVLCRG yielded a protein stability index of 0.503 ± 0.024.
VAGRGLGCPGRI showed a protein stability index of 0.632 ± 0.018.
Work on VAGSGAGREAAY yielded a protein stability index of 0.651 ± 0.0067.
VAGVLVFGKVGG showed a protein stability index of 0.694 ± 0.043.
VALFPVSFFSWL showed a protein stability index of 0.643 ± 0.098.
Sequence VALVCFAAGWLW has a protein stability index of 0.507 ± 0.037.
Sequence VASSGRSPTPTR has a protein stability index of 0.7551 ± 0.0015.
VAWAQPSGSKAC showed a protein stability index of 0.697 ± 0.046.
In the case of VCAAWKCRLDAG, the protein stability index is reported as 0.624 ± 0.0043.
Sequence VCAGGVFRLARG has a protein stability index of 0.66 ± 0.12.
VCDIRSFALWYA was tested, and the protein stability index was 0.8 ± 0.024.
Work on VCGECGWRRVCL yielded a protein stability index of 0.734 ± 0.028.
VCGGLGCSVVLE was tested, and the protein stability index was 0.721 ± 0.078.
VCGGRQGGWGGW showed a protein stability index of 0.693 ± 0.0098.
VCGRTHRVLPTY showed a protein stability index of 0.641 ± 0.015.
VCIAKCKYNKTS showed a protein stability index of 0.606 ± 0.015.
For VCLGAWGEGGRG, the protein stability index was 0.664 ± 0.071.
With VCMSLVRGEAGG the protein stability index was 0.657 ± 0.011.
In the case of VCNFCFLPASLV, the protein stability index is reported as 0.636 ± 0.021.
VCPPIVSSSWIL gave a protein stability index of 0.687 ± 0.035.
VCPVIGGGGVGV gave a protein stability index of 0.695 ± 0.0077.
In the case of VCRGFRHQCWYG, the protein stability index is reported as 0.665 ± 0.013.
For VCRLLASCFWRL, the protein stability index was 0.655 ± 0.035.
Sequence VCSLALSRPSTG has a protein stability index of 0.6564 ± 0.0018.
VCTGYIAGGPVC was tested, and the protein stability index was 0.659 ± 0.05.
Sequence VCTPCEFIRTQG has a protein stability index of 0.697 ± 0.036.
VCVFFLFGYFRL showed a protein stability index of 0.562 ± 0.22.
In the case of VCVLGGVWGCRG, the protein stability index is reported as 0.66 ± 0.072.
With VCVSRGPGTSDA the protein stability index was 0.685 ± 0.02.
For VCWHSNCVGARH, the protein stability index was 0.652 ± 0.01.
In the case of VDGLQYFMYISG, the protein stability index is reported as 0.68 ± 0.073.
VDGLSGVRPRGL gave a protein stability index of 0.69 ± 0.033.
In the case of VDLARWPVPEFW, the protein stability index is reported as 0.834 ± 0.022.
VDRAPFHLGRQG showed a protein stability index of 0.712 ± 0.043.
VEDGGSREAGEA showed a protein stability index of 0.627 ± 0.0073.
VEERGCCGEAEG showed a protein stability index of 0.72671 ± 0.00023.
Work on VEGISKMTRINP yielded a protein stability index of 0.8698 ± 0.0057.
VEGNLIYKKKYK was tested, and the protein stability index was 0.656 ± 0.053.
Work on VEHILQGVKYRR yielded a protein stability index of 0.717 ± 0.098.
With VESRVVGGGGDW the protein stability index was 0.683 ± 0.047.
Sequence VEVKEKLKLWSH has a protein stability index of 0.691 ± 0.021.
VFAHCSRHRGST was tested, and the protein stability index was 0.7103 ± 0.0029.
Work on VFDCLCGLRPGF yielded a protein stability index of 0.632 ± 0.026.
In the case of VFDGSVSWARHD, the protein stability index is reported as 0.6529 ± 0.0053.
Sequence VFGFLGSLASCR has a protein stability index of 0.853 ± 0.2.
Work on VFHLATSVRRRY yielded a protein stability index of 0.672 ± 0.051.
VFLLSDVCGLGL gave a protein stability index of 0.583 ± 0.2.
For VFLVDCFGVCFL, the protein stability index was 0.784 ± 0.048.
In the case of VFMWRIRRRLVR, the protein stability index is reported as 0.598 ± 0.02.
Work on VFPPLSRLLPGP yielded a protein stability index of 0.699 ± 0.1.
VFTGVGFVPLVC was tested, and the protein stability index was 0.5757 ± 0.0034.
VGAGRGKWRGGG showed a protein stability index of 0.6591 ± 0.0013.
Sequence VGAGVAGGASVS has a protein stability index of 0.613 ± 0.027.
VGAIGYWCPEWR showed a protein stability index of 0.651 ± 0.019.
VGAPPCYPVSRL gave a protein stability index of 0.74 ± 0.24.
Work on VGCPGGVWVFRG yielded a protein stability index of 0.535 ± 0.011.
VGCTSFWLAILR showed a protein stability index of 0.56 ± 0.026.
Sequence VGDGLGWGGQGG has a protein stability index of 0.678 ± 0.03.
VGEIMREVKGPD gave a protein stability index of 0.72 ± 0.0079.
VGFDFLFRFFFL gave a protein stability index of 0.628 ± 0.037.
VGFFGMGVLPEG showed a protein stability index of 0.741 ± 0.013.
Sequence VGFSLGGFLFLF has a protein stability index of 0.585 ± 0.096.
VGGCLFQLSSGY gave a protein stability index of 0.683 ± 0.035.
Work on VGGGASGVGRSG yielded a protein stability index of 0.63009 ± 0.00033.
Work on VGGGGERGRGGS yielded a protein stability index of 0.687 ± 0.01.
VGGGRAALRWYG was tested, and the protein stability index was 0.673 ± 0.018.
With VGGGRFCGCLVV the protein stability index was 0.767 ± 0.015.
